Experiments:
human IL-36R-Fc = biological target: T1, human IL-36R-Fc (human, UniProt Q9HB29 20-335, limits assumed); test: MSD plate assay, IL-38 on plate-bound IL-36R-Fc, detected with biotinylated anti-IL-38 clone H127C
T1 construct: Bought reagent
T1 sequence (looked up): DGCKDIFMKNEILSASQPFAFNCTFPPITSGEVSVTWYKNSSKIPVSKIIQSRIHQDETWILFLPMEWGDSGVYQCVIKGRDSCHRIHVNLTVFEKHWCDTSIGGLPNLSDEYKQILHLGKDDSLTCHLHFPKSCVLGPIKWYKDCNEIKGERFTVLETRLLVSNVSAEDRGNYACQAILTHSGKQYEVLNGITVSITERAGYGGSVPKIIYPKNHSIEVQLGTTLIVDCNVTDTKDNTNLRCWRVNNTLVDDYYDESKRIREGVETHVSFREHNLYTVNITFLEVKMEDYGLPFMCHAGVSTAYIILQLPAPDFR
Description: (§1) Neutralization of human IL-38 binding to IL1RAPL1 or IL-36R. Human IL1RAPL1-Fc (Sino Biological, #10177-H02H) and human IL-36R-Fc (R&D Systems) were diluted in coating Buffer (50 mM Carbonate-Bicarbonate Buffer, pH 9.4) at final concentration of 0.5 μg/mL and coated on MSD high bind plates (MSD) for approximately two hours at RT. Recombinant human IL-38 (Adipogen) was diluted in assay Diluent (1% BSA, 0.1% Tween 20, in 1×PBS). For antibody testing, anti-IL-38 antibodies were pre-incubated with IL-38 for approximately one hour at RT. IL-38 or antibody-IL-38 mixture was transferred to pre-coated MSD plates and incubated for approximately two hours at RT. After washing, the MSD plate was incubated with biotinylated mouse anti-human IL-38 (clone H127C, Thermo Fisher) at final concentration of 100 ng/mL and Sulfo-Tag-Streptavidin (MSD) at final concentration of 100 ng/mL for 1 hour at RT. Binding of IL-38 to plate-bound IL1RAPL1-Fc or human IL-36R-Fc was detected using the Meso Sector S 600 plate reader. Data are plotted using GraphPad Prism version 9.0.1. Dose response curves were fitted with “[Inhibitor] vs. response—Variable slope (four parameters)” method.

Human IL1RAPL1-Fc = biological target: T2, Human IL1RAPL1-Fc (human, UniProt Q9NZN1 19-357, limits assumed); test: MSD plate assay, IL-38 on plate-bound IL1RAPL1-Fc, detected with biotinylated anti-IL-38 clone H127C
T2 construct: Bought reagent
T2 sequence (looked up): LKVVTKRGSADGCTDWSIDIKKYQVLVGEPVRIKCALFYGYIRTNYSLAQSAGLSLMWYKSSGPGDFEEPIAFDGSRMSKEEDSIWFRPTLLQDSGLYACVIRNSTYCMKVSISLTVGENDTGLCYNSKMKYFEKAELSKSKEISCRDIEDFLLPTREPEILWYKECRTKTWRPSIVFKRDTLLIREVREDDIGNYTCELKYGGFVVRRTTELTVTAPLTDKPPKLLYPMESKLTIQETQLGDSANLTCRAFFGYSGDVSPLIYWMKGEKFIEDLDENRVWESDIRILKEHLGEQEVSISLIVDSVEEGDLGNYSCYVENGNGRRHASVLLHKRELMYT
Description: as §1

B1: human interleukin-38 (IL-38) (ligand, UniProt Q8WWZ1 1-152, looked up)
chain: MCSLPMARYYIIKYADQKALYTRDGQLLVGDPVADNCCAEKICILPNRGLARTKVPIFLGIQGGSRCLACVETEEGPSLQLEDVNIEELYKGGEEATRFTFFQSSSGSAFRLEAAAWPGWFLCGPAEPQQPVQLTKESEPSARTKFYFEQSW
notes: One entry is used for all sources of human IL-38; The Adipogen protein is called full length; also called IL1F10/IL38; IL1F10
Q: What does the source list for B1?
A: binding result (human IL-36R-Fc): binds; binding result (Human IL1RAPL1-Fc): binds
